Source: article PMC3408453, “A Foldamer-Dendrimer Conjugate Neutralizes Synaptotoxic β-Amyloid Oligomers” (PLoS ONE, 2012)

Molecular target: T1, oligomeric Aβ (Homo sapiens, UniProt P05067)
T1 construct: a depsipeptide derivative of Aβ(1–42) was utilized; made in house; host or cells: chemical peptide synthesis (no expression host)
Assay: ThT binding experiment on oligomeric Aβ
Conditions: oligomeric Aβ + ligand 1∶1, up to 24 h
Description: The data on 7 were in agreement with its largely helical structure, also found via NMR. […] This was in accord with the NMR results obtained for the recognition segment 1. The secondary structure was probed also with ThT binding experiments (Figure 9B). Pure Aβ oligomers bound ThT at a certain level. This was in accord with the staining with antibody OC; both are capable of recognizing the fibrillar (or protofibrillar) oligomers. […] The latter process is similar to affinity precipitation.
(A) Observed ellipticities in ECD for 36 μM Aβ oligomer (thick black), 9 μM 7 (thin black), and 36 μM Aβ +9 μM 7 (thick dashed). The hypothetical sum of the ECD curves of the pure samples (thin dashed). (B) ThT binding experiment carried out on 36 µM oligomeric Aβ (white bars) and on 36 µM oligomeric Aβ +7 1∶1 mixtures. The relative fluorescence values were monitored up to 24 h.
ThT (Sigma-Aldrich) was dissolved in 50 mM NaH2PO4/Na2HPO4 buffer (pH = 7.0) to a final concentration of 25 μM. […] Two identical 50 μM Aβ oligomer samples were prepared and one of them was mixed with 7 to a final concentration of 50 μM, and the ThT signal intensity was monitored up to further 24 h. […] ThT fluorescence was measured on a plate reader at […] and λem = 480 nm. Data mean values and S.D. were calculated from three parallel measurements.

N=C(N)NCCC[C@@H](CC(=O)N[C@H]1CCCC[C@@H]1C(=O)N[C@H]1CCCC[C@@H]1C(=O)N[C@@H](CC(=O)O)CC(=O)N[C@H]1CCCC[C@@H]1C(=O)NCC(=O)NCC(=O)N[C@@H](CSC1CC(=O)N(CCC(=O)NCCNC(=O)CCN(CCC(=O)NCCNC(=O)CCN2C(=O)CC(SC[C@H](NC(=O)CNC(=O)CNC(=O)[C@H]3CCCC[C@@H]3NC(=O)C[C@H](CC(=O)O)NC(=O)[C@H]3CCCC[C@@H]3NC(=O)[C@H]3CCCC[C@@H]3NC(=O)C[C@H](CCCNC(=N)N)NC(=O)[C@H]3CCCC[C@@H]3N)C(N)=O)C2=O)CCN(CCC(=O)NCCNC(=O)CCN2C(=O)CC(SC[C@H](NC(=O)CNC(=O)CNC(=O)[C@H]3CCCC[C@@H]3NC(=O)C[C@H](CC(=O)O)NC(=O)[C@H]3CCCC[C@@H]3NC(=O)[C@H]3CCCC[C@@H]3NC(=O)C[C@H](CCCNC(=N)N)NC(=O)[C@H]3CCCC[C@@H]3N)C(N)=O)C2=O)CCC(=O)NCCNC(=O)CCN2C(=O)CC(SC[C@H](NC(=O)CNC(=O)CNC(=O)[C@H]3CCCC[C@@H]3NC(=O)C[C@H](CC(=O)O)NC(=O)[C@H]3CCCC[C@@H]3NC(=O)[C@H]3CCCC[C@@H]3NC(=O)C[C@H](CCCNC(=N)N)NC(=O)[C@H]3CCCC[C@@H]3N)C(N)=O)C2=O)C1=O)C(N)=O)NC(=O)[C@H]1CCCC[C@@H]1N (stereo partly shown) [Compound 7]
Effect on ThT binding of Aβ oligomers: no significant effect on the ThT binding
